Measured values from publication PMC3597663 (Nucleic Acids Research, 2013).

Target: Mycobacterium tuberculosis RsdA^1-94 (Mycobacterium tuberculosis, UniProt P9WJ71 1-94)
Assay: SPR

Chain of Mycobacterium tuberculosis RsdA^1-94 (P9WJ71 1-94): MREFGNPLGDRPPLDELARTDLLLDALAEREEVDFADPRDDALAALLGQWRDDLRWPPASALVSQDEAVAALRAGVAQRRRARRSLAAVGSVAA

B1: -35 promoter binding domain of Mycobacterium tuberculosis σ^D (σ^D4), residues 141-212 (domain or fragment)
chain: MAIEADSVTRMNELLEILPAKQREILILRVVVGLSAEETAAAVGSTTGAVRVAQHRALQRLKDEIVAAGDYA
Kd: 10.3 ± 3.5 µM
